The data set can be described thus: soluble on expression in E. coli; label from the status in PepcDB or PDB records.
Take “MGSDKIHHHHHHMKFFNREKEINKILSIIEGEPNNIYFIYGSLNSGKSTLMREIVVNRLDISKYIPFFIDFRTRNILNVDNFIECLFEVDEKSEIDDFREYAKSLADLLVKGSEEISKYYLGMPIKIPKPFFDKIFNKKDKSADVYQYIEYLFAKLNEKGKKPILIFDELQMIKEITLNGNRKLLWSLFQFLVALTKVQHLCHVFCLSSDSLFIEYVYKTGELEGRADYILVDDFDKQTALKFIDFLAKEILNKKLPKDEKELIYSYVGGKPVLIIKVIDKLRYENLNDILDFMLKDATQKLKYFLNDLDYIKPKVEVGDEVIELKKEDIVKALKLFKDSYEISDSEVAKPIYVYLVKKNILFLNPIEGILKPQSFLIWNAIKRLL”: the “soluble on expression in E. coli” value is given as “not soluble”.

For “MGSDKIHHHHHHMSPKTALNLFSLLWQNYSARVPYARTYEQMITAAGGTVANDHIAFRSLRLLVDSPRGKVNLGINYLSQIAEALGYEPAGEYNFPQTHLYARHYRHPQQIEFDLPKLFISELIVDELPDNIIQLITQTVSTVADEFTSPLTYFSPAEGNDGVIAQQLQKFFTRPWMTPRRSVVEAVNQVTQYGAWVLLHGYAVNHFTGYVNRHQTPEYADIDDTARGLANLGVPMKAEIEGDVTWGLRQTATQAVKEMVTVIDDISGQEVEIPWTYAYYEIAQRYPLQVEPGKEKLFDGFLGNNAQQLFEMTRLVECDAAKIGK”, the “soluble on expression in E. coli” value is reported as “not soluble”.

“MGSDKIHHHHHHMTLLIVGATGTLGRQVARRAIDEGYKVRCLVRSSKKAAFLKEWGAELVPGNLRYPDTLAAALVGVTQVIDASTSRPTDSLSIKQVDWEGKVALIQAAKAAGVERFIFFSILDADKYPEVPLMEIKRCTELFLAESGLNYTILRLAGFMQGLIGQYGIPILEGQPVWVTGNSSPIAYMDTQDIAKFAIRALSVPETENQAFPVVGTRAWSAEEIINLCERLSGKDARVTRMPISLLRAVRGLMRSFQWGWNVADRLAFTEVLASGKQLNASMDEVYTVFGLDPQQTTTLESYLQEYFSRIMKKLKEVDYQKNKNKKQKPKKTPFKQSSKANSQ”: the “soluble on expression in E. coli” value is on record as “not soluble”.

As for “MQNSTTEFLKPRQIDVNTFSATRAKVSMQPFERGFGHTLGNALRRILLSSMNGFAPTEVAIAGVLHEYSTVDGIQEDVVDILLNIKGIVFKLHGRSQVQLVLKKSGSGVVSAGDIELPHDVEILNPGHVICHLADNGQIEMEIKVEQGRGYQSVSGRQVVRDENRQIGAIQLDASFSPISRVSFEVEPARVEQRTDLDKLVLDIETDGSIDPEEAVRSAARILIDQMSIFADLQGTPVEEVEEKAPPIDPVLLRPVDDLELTVRSANCLKAEDIYYIGDLIQRTETELLKTPNLGRKSLNEIKEVLASKGLTLGSKLEAWPPVGLEKP”, the “soluble on expression in E. coli” value was “soluble”.

As for “AHHHHHHGSSNIVKGIVKWVEGEQFIGGIEGENCSVILGEGGISPMKLLLLSVAGCTAYDVVMILRKMREPIRGLRVEIEGVRREEHPRVYKEVTIHYKIYGKVDEKKARRAIELSQEKYCSASAHLKLGGTIVRYTLEIFDDEPPSHAEG”, the “soluble on expression in E. coli” value is listed as “soluble”.

On to “MFTTYKNINELENAYDEERKQLNDAFNQIDELRHQTRKKCEQMYDHFLYLKHKMNYSEDAMIRMTRIIESFDRETNQRIRHHEMKLEDYKDELRREYLKQSDRIEGDELEHHHHHH”, for which the “soluble on expression in E. coli” value is reported as “not soluble”.

Turning to “TQSLSNTFDSAIDDQLANVDVVMSGEKAPMPRGLIDELREDKDHVAAVAVQGATSAVLATEDRKAIQTGAASPTIGIFYGEGSAATTPEKITSGKEPHEANEVLAPESAAELGIKEGSTVVVVDEAGQREVKVVGTYSTEATAHPGVNLLMGEKAFLDRYQPEFIGTIFVKKADGSSEDVVQYLKDKYPDFKVDTGASLAEELTKTIKKALSFVNY”, the “soluble on expression in E. coli” value is listed as “not soluble”.

On to “MAHSKHGLKEEMTMKYHMEGCVNGHKFVITGEGIGYPFKGKQTINLCVIEGGPLPFSEDILSAGFMYGDRIFTEYPQDIVDYFKNSCPAGYTWGRSFLFEDGAVCICNVDITVSVKENCIYHKSIFNGMNFPADGPVMKKMTTNWEASCEKIMPVPKQGILKGDVSMYLLLKDGGRYRCQFDTVYKAKSVPSKMPEWHFIQHKLLREDRSDAKNQKWQLTEHAIAFPSALA”, for which the “soluble on expression in E. coli” value is “soluble”.

As to “MAHHHHHHMWQHHNLSSPTLGPREAKPTVQTSRRGCMRSDAWCSSLAGGGHDDPSESVPNSRVSPRASSFAPPQRTAPSPTESTSQELFELQNCNHHKQQQKQQLVIRQEDIRDDDFQRLEVLGDGSYSVVVSARHLPTQQLVALKEVSRHRLRELKLEKQLQWEINVHRTLRHPNVVRMLSYYITPQTVVLVLEMCPGGTLLQKLKTMPGGRFDERRASRYVRQAARALTYLHGHGIAHRDLKLENIFLDAHGVARLGDFGWSKALVEPTVEQDLSSHHDNFGTAPCSAAKDVSPLCSGGRGRLTVCGTLDYLSPEMLIGMPHTFKTDVWSLGVMLAEMLTGAPPFYCVSQQDTLNAIREAAPHLGDDVQMSSLARELVLAMLQKNPDARPTMAEVLQHPWTRQNGEKKKKKK”, the “soluble on expression in E. coli” value was “soluble”.

As for “MGSDKIHHHHHHMVKPDHGRKRQIELTEIGERIYQHAVELLQAEQNIFLEIENYQQLKTGTLKLGVPPLGSQLLTTALFDFHRQWPDIELAFMEVGSRGIEQALLNNELDVGVLLQPFDEQTFNSIELCNYPLMVLLRRDATWATRKKINLEELQHQSFLMFPENFSLNSIILDACKQYGFYPTIACRTSQWHLLADMVLQRMGIALLPQYYTDMLDPTLFAAVPLEKPNIQWHLVMAWKKNLPASPAVQAWLSIVRQHFQHIKP”, the “soluble on expression in E. coli” value is listed as “not soluble”.

As for “MKAMPIDDPIDGYVAELSRALHGPRRAKRDLIAEVRDGLIDAAEAYQAAGLDRPEAERRAVAEFGTVGEIAPGLQEELAAATGQRLGALLFLSAPRSPGT”, the “soluble on expression in E. coli” value was “not soluble”.

“MGSDKIHHHHHHMQKYTSQKLDRLNWDDLRYFLEVARTQRASAAGKRLGVDHTTVARRVRELEAALGVILFDKSRADGFTLTSDGHRLLRHADAVETAVQSASEQFRGATQGLSGHVRIGSTEGFGCFFLSPQIARFTAAHRDVSIDILPVPHFVSLSKREADMAITLERPERGKYVFTRLCDYRLRLYGTRDYFLRHEPVRCIADLRHHAFIDYVADLAFSHELLYLNRTIPDVSSSLCSTSVIAQYFAALQGNALAILPCFMAAPNPMLVSILPDEVVVTRQFWLSSREDLRKLRRITVLWDYLRAATDANRPLLLGDSAELKYVQP”: the “soluble on expression in E. coli” value was “not soluble”.

“MTQLNFEENLLTKVAWYYYKDQLTQQEIASLLHISRNKVVRLLDKARSEGIVTFHVKGTGLHCLSIERDLMKKFHLKDAFIIPTPVNNYHASLGKAAAQYLETHLQQGDLLGIGWGETISKMLENIHFESSINLSIVTLTGGVNHYLPRKQNYLHYMQGELHIIPTPFLASTTEMAQSILSEPSVKDMLQVASLAHTAVVGIGGLSQDATIVKEEKLTLREMTYIRSQNGAGDILGQFYNTNGDLLELSHHNRLIGTPLSILRNMKHVVGVAGGTEKIDAICGALKGKFIHSLITDEETALSLLRKDGDC”: the “soluble on expression in E. coli” value is recorded as “not soluble”.

For the sequence “MGSDKIHHHHHHMRRTALHSSTVGIRMRRALLRGLALSLTLGGAALGQSVGDSIFPSLGQRGLDVQHYDLHLTVPRPGEPHLSGDVTLTVGAREPLSRIVLDLLGPRVSAAQWNGQRVRWVQTAQKVEVTLPRPLRPGETGRLRLIYAGTPELSGDPGLPIRPGWQNEAGLSYSLSEPHGTRGFLPCNDHPSDPATFTVRVTVPASASAAASGLFTTQTERNGLKTLTFTQRVPVPTYALGLIVGPLERRTAPDVQLGTQTVHRRDIYAAGLPAGTTVPEGETARMLRVLSDWFGPYPDEVYGVALLPVRQLALETAGLTTMPATSNRERVRLHELAHQWFGDQVTLADWADTWLSEGFATYAELLWAESQGEDGQAMAADWYARLSVLPSRPLRATREEEIFDASAYFRGALALHALRLKVGDAAFGQFLHSYVKTFTGRPVSTTALLTLVKTQLGAEAEQTLRVWVEGRTLPPLPEPVGAPV”, the “soluble on expression in E. coli” value is “not soluble”.

For “MGSDKIHHHHHHAQNNADDKYEILSLTDMFSLFKDSKNSVPQDYDEIYVPGYFYEPSFMYPSPLKKEFCCVAQWRIPNRNCKYLFLEDIFPQNKDSLKQASLELQKIKEKYGMRESAMYQDVPAGYNGIIAKWFTGRLFVLHCPRKLFNTVVSKKASLISIHKGRISDEKQITPDEGKFESSCFPQKGGMILIREDGCWYDDIKRNIDFLISPLINENFPTEFSKHVGREYSFLLEVVPKTGQIIPHLLLPKTLSTDEKMIVSYLEKQIRKFPENSFGPLITIDKKMLYGRYLKFIVKDEKFKIEDYLEY”, the “soluble on expression in E. coli” value is given as “not soluble”.

Values taken from the DeepSol protein solubility set.
